Publication PMC2956136

Biological target: GST-RanQ69LGTP (UniProt P62826)
Test: SPR

How did the drop in response units with 5 μM Iβ1A against the DMSO control turn out when “importin β (from UniProt Q14974 1-876) (natural protein; other documents disagree on this pair)” was run?
Its drop in response units with 5 μM Iβ1A against the DMSO control is 70%.
